Experimental data from paper PMC7954794 (2021).

B1: S. cerevisiae Abp1 (full length; SH3 domain 535-592 mutated) / Hua2 (parent complex)
chain 1: MALEPIDYTTHSREIDAEYLKIVRGSDPDTTWLIISPNAKKEYEPESTGSSFHDFLQLFDETKVQYGLARVSPPGSDVEKIIIIGWCPDSAPLKTRASFAANFAAVANNLFKGYHVQVTARDEDDLDENELLMKISNAAGARYSIQTSSKQQGKASTPPVKKSFTPSKSPAPVSKKEPVKTPSPAPAAKISSRVNDNNDDDDWNEPELKERDFDQAPLKPNQSSYKPIGKIDLQKVIAEEKAKEDPRLVQKPTAAGSKIDPSSDIANLKNESKLKRDSEFNSFLGTTKPPSMTESSLKNDDDKVIKGFRNEKSPAQLWAERKAKQNSGNAETKAEAPKPEVPEDEPEGEPDVKDLKSKFEGLAASEKEEEEMENKFAPPPKKSEPTIISPKPFSKPQEPVKAEEAEQPKTDYKKIGNPLPGMHIEADNEEEPEENDDDWDDDEDEAAQPPLPSRNVASGAPVQKEEPEQEEIAPSLPSRNSIPAPKQEEAPEQAPEEEIEEEAEEAAPQLPSRSSAAPPPPPRRATPEKKPKENPWATAEYDYDAAEDNELTFVENDKIINIEFVDDDWWLGELEKDGSKGLFPSNYVSLGN
chain 2: MQQTKFGKMYLDHDSVVEYSEDEIVEADRITLGYKKRLSMIENQMRHLLEDFSLDVQQIEPILADLQKYYDAFLQLLQKRNKSLQCKRSTHQPVPSPMNSQTSTNAKVNLSGKLMKFQLNSVQKFDEENILRILQNKIEFEHYFQIDKGKKQKVLLLAVYQCLNGPTRLHKVLNIEGIIHNNSIRTILGKQVSSSKWTVFLYDVKLVLLAHRQDVPNLETSKMIVRYGDLFPCALYFKDHTAY

Variants of: B1
Experiment: DHFR protein-fragment complementation in yeast (Abp1-DHFR F[1,2] x partner-DHFR F[3]), deep mutational scanning, second methotrexate selection vs reference; S. cerevisiae, DHFR-PCA selection in liquid with methotrexate at 30 C, two 72 h selections (the score uses the second); reference = the pre-selection culture

Row | Variant | screen value
1 | chain 1 Y587I | -0.578 DMS score: mean over two replicates of log2(f_test/f_ref + 0.5)/ln 2, minus the synonymous-codon median (not a log2 …
2 | chain 1 Y587H | -0.477 DMS score: mean over two replicates of log2(f_test/f_ref + 0.5)/ln 2, minus the synonymous-codon median (not a log2 …
3 | chain 1 S589N | 1.22 DMS score: mean over two replicates of log2(f_test/f_ref + 0.5)/ln 2, minus the synonymous-codon median (not a log2 …
4 | chain 1 S589F | -0.753 DMS score: mean over two replicates of log2(f_test/f_ref + 0.5)/ln 2, minus the synonymous-codon median (not a log2 …
5 | chain 1 S589H | 0.128 DMS score: mean over two replicates of log2(f_test/f_ref + 0.5)/ln 2, minus the synonymous-codon median (not a log2 …
6 | chain 1 S589L | 0.723 DMS score: mean over two replicates of log2(f_test/f_ref + 0.5)/ln 2, minus the synonymous-codon median (not a log2 …
7 | chain 1 S589I | 0.802 DMS score: mean over two replicates of log2(f_test/f_ref + 0.5)/ln 2, minus the synonymous-codon median (not a log2 …
8 | chain 1 S589G | 0.273 DMS score: mean over two replicates of log2(f_test/f_ref + 0.5)/ln 2, minus the synonymous-codon median (not a log2 …
9 | chain 1 S589R | 1.04 DMS score: mean over two replicates of log2(f_test/f_ref + 0.5)/ln 2, minus the synonymous-codon median (not a log2 …
10 | chain 1 S589T | 0.254 DMS score: mean over two replicates of log2(f_test/f_ref + 0.5)/ln 2, minus the synonymous-codon median (not a log2 …
11 | chain 1 S589Q | 0.838 DMS score: mean over two replicates of log2(f_test/f_ref + 0.5)/ln 2, minus the synonymous-codon median (not a log2 …
12 | chain 1 S589D | 0.916 DMS score: mean over two replicates of log2(f_test/f_ref + 0.5)/ln 2, minus the synonymous-codon median (not a log2 …
13 | chain 1 A545E | -0.673 DMS score: mean over two replicates of log2(f_test/f_ref + 0.5)/ln 2, minus the synonymous-codon median (not a log2 …
14 | chain 1 E563R | -1.39 DMS score: mean over two replicates of log2(f_test/f_ref + 0.5)/ln 2, minus the synonymous-codon median (not a log2 …
15 | chain 1 E563N | -0.99 DMS score: mean over two replicates of log2(f_test/f_ref + 0.5)/ln 2, minus the synonymous-codon median (not a log2 …
16 | chain 1 K580N | -0.698 DMS score: mean over two replicates of log2(f_test/f_ref + 0.5)/ln 2, minus the synonymous-codon median (not a log2 …
17 | chain 1 K580F | 0.0243 DMS score: mean over two replicates of log2(f_test/f_ref + 0.5)/ln 2, minus the synonymous-codon median (not a log2 …
18 | chain 1 K580Q | 0.294 DMS score: mean over two replicates of log2(f_test/f_ref + 0.5)/ln 2, minus the synonymous-codon median (not a log2 …
19 | chain 1 K580E | -0.984 DMS score: mean over two replicates of log2(f_test/f_ref + 0.5)/ln 2, minus the synonymous-codon median (not a log2 …
20 | chain 1 K580S | -0.00598 DMS score: mean over two replicates of log2(f_test/f_ref + 0.5)/ln 2, minus the synonymous-codon median (not a log2 …
21 | chain 1 N556M | -0.751 DMS score: mean over two replicates of log2(f_test/f_ref + 0.5)/ln 2, minus the synonymous-codon median (not a log2 …
22 | chain 1 W569Q | -2.81 DMS score: mean over two replicates of log2(f_test/f_ref + 0.5)/ln 2, minus the synonymous-codon median (not a log2 …
23 | chain 1 T552K | -0.621 DMS score: mean over two replicates of log2(f_test/f_ref + 0.5)/ln 2, minus the synonymous-codon median (not a log2 …
24 | chain 1 F564K | -2.62 DMS score: mean over two replicates of log2(f_test/f_ref + 0.5)/ln 2, minus the synonymous-codon median (not a log2 …
25 | chain 1 F564P | -2.61 DMS score: mean over two replicates of log2(f_test/f_ref + 0.5)/ln 2, minus the synonymous-codon median (not a log2 …

Row | Variant | screen value
26 | chain 1 F564M | 0.421 DMS score: mean over two replicates of log2(f_test/f_ref + 0.5)/ln 2, minus the synonymous-codon median (not a log2 …
27 | chain 1 F564R | -2.96 DMS score: mean over two replicates of log2(f_test/f_ref + 0.5)/ln 2, minus the synonymous-codon median (not a log2 …
28 | chain 1 F564E | 0.712 DMS score: mean over two replicates of log2(f_test/f_ref + 0.5)/ln 2, minus the synonymous-codon median (not a log2 …
29 | chain 1 G578N | 0.0866 DMS score: mean over two replicates of log2(f_test/f_ref + 0.5)/ln 2, minus the synonymous-codon median (not a log2 …
30 | chain 1 G578S | -0.671 DMS score: mean over two replicates of log2(f_test/f_ref + 0.5)/ln 2, minus the synonymous-codon median (not a log2 …
31 | chain 1 G578H | 0.339 DMS score: mean over two replicates of log2(f_test/f_ref + 0.5)/ln 2, minus the synonymous-codon median (not a log2 …
32 | chain 1 G578A | -0.527 DMS score: mean over two replicates of log2(f_test/f_ref + 0.5)/ln 2, minus the synonymous-codon median (not a log2 …
33 | chain 1 V565Q | -0.327 DMS score: mean over two replicates of log2(f_test/f_ref + 0.5)/ln 2, minus the synonymous-codon median (not a log2 …
34 | chain 1 V565P | -0.0718 DMS score: mean over two replicates of log2(f_test/f_ref + 0.5)/ln 2, minus the synonymous-codon median (not a log2 …
35 | chain 1 V565A | -0.567 DMS score: mean over two replicates of log2(f_test/f_ref + 0.5)/ln 2, minus the synonymous-codon median (not a log2 …
36 | chain 1 V565N | -0.352 DMS score: mean over two replicates of log2(f_test/f_ref + 0.5)/ln 2, minus the synonymous-codon median (not a log2 …
37 | chain 1 V565H | -1.58 DMS score: mean over two replicates of log2(f_test/f_ref + 0.5)/ln 2, minus the synonymous-codon median (not a log2 …
38 | chain 1 Y541K | -2.77 DMS score: mean over two replicates of log2(f_test/f_ref + 0.5)/ln 2, minus the synonymous-codon median (not a log2 …
39 | chain 1 Y541S | -1.59 DMS score: mean over two replicates of log2(f_test/f_ref + 0.5)/ln 2, minus the synonymous-codon median (not a log2 …
40 | chain 1 Y541V | -1.72 DMS score: mean over two replicates of log2(f_test/f_ref + 0.5)/ln 2, minus the synonymous-codon median (not a log2 …
41 | chain 1 Y541F | 0.0303 DMS score: mean over two replicates of log2(f_test/f_ref + 0.5)/ln 2, minus the synonymous-codon median (not a log2 …
42 | chain 1 Y541L | -2.57 DMS score: mean over two replicates of log2(f_test/f_ref + 0.5)/ln 2, minus the synonymous-codon median (not a log2 …
43 | chain 1 Y541C | -1.21 DMS score: mean over two replicates of log2(f_test/f_ref + 0.5)/ln 2, minus the synonymous-codon median (not a log2 …
44 | chain 1 Y541D | -1.13 DMS score: mean over two replicates of log2(f_test/f_ref + 0.5)/ln 2, minus the synonymous-codon median (not a log2 …
45 | chain 1 E575L | -0.106 DMS score: mean over two replicates of log2(f_test/f_ref + 0.5)/ln 2, minus the synonymous-codon median (not a log2 …
46 | chain 1 E575S | -0.146 DMS score: mean over two replicates of log2(f_test/f_ref + 0.5)/ln 2, minus the synonymous-codon median (not a log2 …
47 | chain 1 E575M | -0.236 DMS score: mean over two replicates of log2(f_test/f_ref + 0.5)/ln 2, minus the synonymous-codon median (not a log2 …
48 | chain 1 E575C | -0.21 DMS score: mean over two replicates of log2(f_test/f_ref + 0.5)/ln 2, minus the synonymous-codon median (not a log2 …
49 | chain 1 A537G | 0.922 DMS score: mean over two replicates of log2(f_test/f_ref + 0.5)/ln 2, minus the synonymous-codon median (not a log2 …
50 | chain 1 L551I | -0.106 DMS score: mean over two replicates of log2(f_test/f_ref + 0.5)/ln 2, minus the synonymous-codon median (not a log2 …

Row | Variant | screen value
51 | chain 1 I560C | 0.328 DMS score: mean over two replicates of log2(f_test/f_ref + 0.5)/ln 2, minus the synonymous-codon median (not a log2 …
52 | chain 1 I560M | 0.263 DMS score: mean over two replicates of log2(f_test/f_ref + 0.5)/ln 2, minus the synonymous-codon median (not a log2 …
53 | chain 1 D548I | -0.724 DMS score: mean over two replicates of log2(f_test/f_ref + 0.5)/ln 2, minus the synonymous-codon median (not a log2 …
54 | chain 1 D548N | 0.0071 DMS score: mean over two replicates of log2(f_test/f_ref + 0.5)/ln 2, minus the synonymous-codon median (not a log2 …
55 | chain 1 D548T | 0.434 DMS score: mean over two replicates of log2(f_test/f_ref + 0.5)/ln 2, minus the synonymous-codon median (not a log2 …
56 | chain 1 I562L | -0.495 DMS score: mean over two replicates of log2(f_test/f_ref + 0.5)/ln 2, minus the synonymous-codon median (not a log2 …
57 | chain 1 E547S | -2.1 DMS score: mean over two replicates of log2(f_test/f_ref + 0.5)/ln 2, minus the synonymous-codon median (not a log2 …
58 | chain 1 E547K | -2.17 DMS score: mean over two replicates of log2(f_test/f_ref + 0.5)/ln 2, minus the synonymous-codon median (not a log2 …
59 | chain 1 E547H | -2.24 DMS score: mean over two replicates of log2(f_test/f_ref + 0.5)/ln 2, minus the synonymous-codon median (not a log2 …
60 | chain 1 E547Q | -2.26 DMS score: mean over two replicates of log2(f_test/f_ref + 0.5)/ln 2, minus the synonymous-codon median (not a log2 …
61 | chain 1 K576T | -0.475 DMS score: mean over two replicates of log2(f_test/f_ref + 0.5)/ln 2, minus the synonymous-codon median (not a log2 …
62 | chain 1 E540M | -2.49 DMS score: mean over two replicates of log2(f_test/f_ref + 0.5)/ln 2, minus the synonymous-codon median (not a log2 …
63 | chain 1 E540K | -2.41 DMS score: mean over two replicates of log2(f_test/f_ref + 0.5)/ln 2, minus the synonymous-codon median (not a log2 …
64 | chain 1 E540I | -2.91 DMS score: mean over two replicates of log2(f_test/f_ref + 0.5)/ln 2, minus the synonymous-codon median (not a log2 …
65 | chain 1 E540H | -2.15 DMS score: mean over two replicates of log2(f_test/f_ref + 0.5)/ln 2, minus the synonymous-codon median (not a log2 …
66 | chain 1 G591V | -0.0626 DMS score: mean over two replicates of log2(f_test/f_ref + 0.5)/ln 2, minus the synonymous-codon median (not a log2 …
67 | chain 1 G591Y | -0.189 DMS score: mean over two replicates of log2(f_test/f_ref + 0.5)/ln 2, minus the synonymous-codon median (not a log2 …
68 | chain 1 G591S | 0.409 DMS score: mean over two replicates of log2(f_test/f_ref + 0.5)/ln 2, minus the synonymous-codon median (not a log2 …
69 | chain 1 G591I | 0.474 DMS score: mean over two replicates of log2(f_test/f_ref + 0.5)/ln 2, minus the synonymous-codon median (not a log2 …
70 | chain 1 G591D | -0.157 DMS score: mean over two replicates of log2(f_test/f_ref + 0.5)/ln 2, minus the synonymous-codon median (not a log2 …
71 | chain 1 G591C | -0.973 DMS score: mean over two replicates of log2(f_test/f_ref + 0.5)/ln 2, minus the synonymous-codon median (not a log2 …
72 | chain 1 G591H | -0.407 DMS score: mean over two replicates of log2(f_test/f_ref + 0.5)/ln 2, minus the synonymous-codon median (not a log2 …
73 | chain 1 W536V | -0.259 DMS score: mean over two replicates of log2(f_test/f_ref + 0.5)/ln 2, minus the synonymous-codon median (not a log2 …
74 | chain 1 F553L | 0.618 DMS score: mean over two replicates of log2(f_test/f_ref + 0.5)/ln 2, minus the synonymous-codon median (not a log2 …
75 | chain 1 T538I | 0.252 DMS score: mean over two replicates of log2(f_test/f_ref + 0.5)/ln 2, minus the synonymous-codon median (not a log2 …
